Assay: soluble fraction after stress (log2 fold change); higher = more stays soluble; pooled small domains, quantitative proteomics
Conditions: stress: pH 4
How it was run: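 After pH 4 stress, pooled custom libraries of small protein domains were quantified with high-throughput quantitative proteomics. Aggregation propensity is taken from the fold change in each domain's soluble amount following the acid stress. The scale is log2, where higher values mean more stayed soluble.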

Sequence	soluble fraction (log2)
HMAAEGARNNSLFNSLRERALEVSSHNELEQIAFKMNETNIPPLRASEVISVVNSVWKNRISNQIIP	-0.0841
HMAAFGDLLSELRRDMNMTQDELAKVLFVSPGTISNYENNIHFPDVPKLKQIAQYFGVTTDYLLG	-1
HMAAINTYQVRKIYAIAGALGMKSRDGDDALHDLVFGMTGKQHISGLTSAEAYDVIAELEKKQ	-0.223
HMAALKVAVLTVSDTRTQETDTSGAFLEGALREAGHEIADRQIVIDDVYQLRAIVSQWIADPEVEVILT	-1.31
HMAALTADEAKQIALKHAGVAESDVQRLKVEQDRDDGRLLYEVEWDVGRTEYSYEIDANTGDILNYEKDV	-0.361
HMAANKIDEDRNTELLQVIQNKFPDADAATKKSVKEIMKEHDIPNFKNADDIPTAVLEQIVKVLNQ	-0.128
HMAAPLTDRETEVLTLLARGLINKQIAEELHIGLTTVITHRRNIMEKLRVRSLAELILRAVAAGYVDAGR	-0.78
HMAARKDLIAGEDAEGRLDAWLAAALDGEFSRNRVKALIEQGAVAINDVAVTEPKRKIRPGDRLSIVLPEP	0.248
HMAARLMRALIPYAQGGLLAKLHEDGQVLSEEYTGEGIEVKALADEQLFGRLTVQLGEQAVSWQD	-0.205
HMAASTPGTVTGSVVNVRPDPSTNNDRIGVIYQGTKVEILAQVGEWYNIQFGPVSGWVHKDYISTGA	-0.161
HMAATISPEIQAEAEKAAALGVESIKNFMASLKEKNPEQHALFSDSEKRRLYAIARKADLNTTQQG	0.0597
HMAAVPQPQRSETIVYIGGRKFYVHTVQAGETLYSIARLYGVSEQTLVANNPTMADVVKADQNVRIPVPA	-0.00329
HMAAYRLIPLGNSNKDFETYQEAIQYMRDKLDESSKAFEEGKQNWVYSGRVYGVPWSDGRTTFTVDLVPKV	0.0755
HMADASVTAYFKIAEDRLQGRLPDTFSEASLKARYQLTPAQLTAVLTRIAQEGWAERKPGYGWAFSSML	-1
HMADEIMYPVQVNGKVRAEIFVAADQSKNKELVLEMAKSEERVQKYLEEGNLIKEIFVPGRIVNLVI	-0.269
HMADEIQIGLQKAIQSLPEKQKLVFSMRYYDEIPYDEMSKILDMSVGTLKTNYHYAKQKIEDFLQNH	-0.0771
HMADFIGMNATVTERIFPQGFGRISFVYEGNSISEPARSEDGKEIPTGTSVVVLEVRDKVYIVQPL	-0.0827
HMADGDIIPEGQRDATLASLAGSMRARGMTEAEILAALQVTNETRVRPPMALADLERIARSIGRYEPGK	0.0649
HMADKGTITNQQEKILKALILFPEGASIEEIQKAADLGIDKRQFQRRLNTLIESGQINRTGKSRGTKYHTI	0.356
HMADLKVGFVHRAGSVLERELDDVLEALEMYRSALAIDPSHKPSLDALTRISQLADYREQAAEILEPLPR	-1.04
HMADLNFHQQIRSLPPEQQEILLLRFGQELTLRQIAQVTGVPLRTVQSRLRAALKKLKSQLEKEE	-0.0215
HMADLPQATALADVKGDVQMQGIQFGYDPEKIIIHDLNLHARPGSLVAIVGPTGAGKTTIINLLMRFYD	0.124
HMADLVYLRKRLQDAIAQLPEDMRTAYTLFQIARRSIREIAELTGASESLVKVRIHRAKGKLQELLEDLR	-0.55
HMADPAVLIAELFRAMPEKRFSVKNLISATGAETREQKDYVREVVHSLSREGMIEQVAEGKYRLSASE	0.241
HMADQVLVMTRAVGQGDIVRNADIGLTSVAVDRAVATIPASQLDKIVGRHALVDLSPGQLLGSHSVGE	0.107

Sequence	soluble fraction (log2)
HMADRDKYIIMGQQLLRAAFEHFGKKATDKALENAANKLRISDVPELYARLGSAELQPRDVINVIFPD	-0.0521
HMADRLITLSEVASLLRVSRHTVQAWISPSSPNHRPEFAIMARHAGRRTVFIEAEVTAWLDQRRG	-0.7
HMADVSPEAQHKMVEAFAQFGVTKEHIEQRIQRRLDAIQPAQMVTLKRIFASLRDGMSTPAEWFE	-1.03
HMADYSGYLGKKGKVIAPLRPAGTALIDGERVDVVSFGDYIDKDSEIEVVKIEGSKLLVKKY	0.128
HMAEAIVMSTAAPVKSSPDPQSKDIFVLHEGTKVAVGDSLGDWREIRIADGNKGWVLVSAIEMI	-0.173
HMAEDGNMTFEEYAKRWLARQVRYAPSTLESYRRMLGRVYPFIGAIPINRLRPIALENLLAELRKRT	-0.0982
HMAEEFESMTEARRLELARLVDSRGFVRVTDAAEELGVSDVTIRGDLSELERRGLLTRVHGGAMPVT	-0.366
HMAEKEYYYATDALNLRQGPGMEHTVKGEVVLGERVALLGLEGKWAKIQNAQGTTGYVFSAYLAPS	-0.147
HMAEMLENQLKHAKSKQEANEYIAAAIGGVSDDDPDKEYLVAAYNEISKEFHHSSAYHRLPDT	≥ 0.43
HMAEMRYLDQIYEVNVPLPDLSLEDGDLLARWAVNFHQRYEELFSYRQSDQEIRLVTLRVTVLGELP	-1.67
HMAENMNAALRVSSLINQIGTVNAKAKDRIESARKAYDALSEAQKAYVANLTTLETAETSLSKL	0.146
HMAENTIPSVIGKTLSDATFLLESYGYERGGVSEEYSEMPKGVVIRQSPQAGSSADPGTKVNLVVSLGEEI	-0.692
HMAENTKKWDETGRRYRSYIKLEKRLSENTVESYMRDYMQFAHFILRQWDVAPHKVEPQMVERYMAWLYER	-0.806
HMAEPIAAGKYTVSTSGSVLNMRVSPDADSQVLEKIPNGTIVEVTKSVLGWAYVTYNSAQGWVSSAYLV	-0.463
HMAEPLMTQIVEIEYADAEGLRENLEQFLTRLDEKTLLGSVLVDRHTNSLIIQAVRSDLERMLPLIETLDR	-1.49
HMAEPLYKQVKNKIIQNLTSDEWKPGSVIPSETKLAETYGVGVSTIRMAIGELVAARILIRRQGKGTFVSS	0.238
HMAEQDILQSVYPHIGGQDNVSRTISRNGTLYLMLKDASAVDLKAVKQVPGIADAALERGRLTLQLEE	-0.0819
HMAEQLGNSRTANMVMLGAMIERTGVISIDSAMEALKATFGPKKEHLLPINRQAMEAGAAAARAV	-0.517
HMAERVWASLLEIKNAVAIEDAKTLEDVDNSEKIAEERIAALNDDAKHPLAIAFIGKLRQDIAEKKIELA	-1.19
HMAESSPYTVRPGDTLWKILAQTQNARYNDFPYLYRKFRELNPNITDLNHIVSGQKIIVPHIPG	0.196
HMAESTRSRILNAAIEMMETGGESSVRLSAIAEALGIKEPSIYHHFTNRTELVNAAYIEWYW	-0.63
HMAEVDREEALRIALAHAAVARRDVRNLKIERGEENGVPVYKVEFETAFGDFDVAVSRRSGDVVDAD	-0.0548
HMAEVIYGAGKTPAQMLGILRTMQAHGQKTVLITRLREEAAEEIGREIPLQYDKTAGVGIVGTLPQPDG	-0.0513
HMAEVPSLIGKSLDAAKQAIIDAGFKVGSVSYDNSDSYGKGQVMWQQYEPSTKVKKGSSISIKVSKGS	-0.121
HMAEVRTLLVPIELAGMRFDQVLAELLPEFSRSRLAAWIKSGDALLDGHDAKPKGVVRGGEQIEIRLA	-0.167

Sequence	soluble fraction (log2)
HMAFAVWVKLVAIGPNYAQLEIEQGTQRNVRTLRPGDDAPEGVRLLSLTPTHAEVQANGIARKLALGQGMA	-0.0174
HMAFDESLVRSIQELLSELGYSPGKIDGLLGAKTVAAIKAFELEINKDQLTGEPSEELLIALQLAIRSSKM	-0.968
HMAFDGIVLKNITNALKELINGKINKIQQSSKDNLTLSIYNQKSYNLYIDISANNYRVNLTTHSE	0.22
HMAFDYETYQLTSREFSIIELVADGRSNREIAEALYLGEGTVRNYLSSILEKLELRDRTQLAVFFYQHL	-2.34
HMAFIEIMTEGDADGRGFQYPIPTYSITRDFDWSETENNKLLFEMTAKYGTPYFSNYINSDMEPSDV	-0.913
HMAGAITEREVEVLELLSRGLGNKEIAKELFVSEATVKSHLSHIYTKLAVDTRAGAVAAAIERRIIRAWR	-0.388
HMAGASQAVKAQLRLREMILAGELPGGARIAELTLVEKLGVSRTPIRAALMRLEQEGLLHRLPGGGYAVRT	-0.41
HMAGDDEIEKIAQDILAAWPDKVAAYQAGNKGLMGLFMGELMKKSQGKANPKVASGIIQKLLD	-0.455
HMAGEDPANLELMRLMDEEYMEHPTKGVLGMVDFLRALGILTGPKRVRRLLRKMGIMAIYPK	-0.396
HMAGGVFELTGKVTADAKAGDLVYVKAATGAGTKPVVTTVKTGADVIIGWLKEPVSSASVDQKMQVVLA	0.22
HMAGITLHAEEGRVRIRSQSEGLVKVLDAMGREQASWPLRSKGWWFFLTEGWAPGTYFVKTESGETQRFLV	0.215
HMAGNNTATKEIAELLIAKGADVNAMNLSPPGREIGGMTPLDMAILGNRNEIADLLRKHGGRTQKELKAE	-0.104
HMAGPGAEVVDRLIAVLTGERPATAADQVLLSILKGLGIGGVVLPSERTGLGWSGLYQRVKEITDMN	-1.21
HMAGPRRRLLDAAIDRAAERGLGDLSLRALAEELGTSHRMLSHHFGSKDGLWLAIVEEVERRQ	-0.661
HMAGSTAASKHALALLNTARHSIRDGNLTSAAAEIKQALATSQEQIVITEARSLMTAMEARATTRRATVLQ	-0.179
HMAGTAMRATTAVNVRSGAGTNYSRIGLLQAGEQIQALSSKNGWTQVSYKGRTGYVASAYLASL	0.402
HMAGTGKVNTGVANVRSGPGTNYEISGKIYADTEVSILETSNGWYKIKFGNLTGWMSGTVLDIK	-0.0124
HMAGTPAVVKWFNPTKGFGFVTPREAGSDALLHASVLAKQGKRWLQEGTVVEVVLEEGPKGLVVSEVLTIE	-0.469
HMAGWMPGGTNPAEPGRFAVLMDVDDSDAYKHMFLRWNGHAWEFERTRVLVKMEPSWWMRLPDDPEKP	-0.27
HMAHKRVDGTIVTPLTADTIVLRTGTHGEQPFEIRDTTRHKLESLQKGDMVILLIDTDNKVIDVAIPP	-0.263
HMAHYYVRNGYYYYQRRIPLDLRKFYSGANIKASLKTKDPAIAALFVAKFDRQYDAEFAQRRLNPD	-0.277
HMAIELIDLIKNPETAPFSKLKYLKWMPEAEVTGFFNNLFQLNVTARETGDWSTVDKFLEDEGDRIAAQVA	-0.215
HMAIEMSTITKRVTSTGEIRYRALLQIRREDVNYTESRTFSKKSLAEAWLKKREVELEANPELLHQ	≥ 0.43
HMAIGERIRFLRTLRRMTQKELGLAAGFPEKNASIRMAQYENGTRTPKAELTAVLAEILKVSPQALTV	0.173
HMAIKNKNEQLEAIIKFADLRGEFKTADIEELLSIKSSRARLLISELVKIGKLESIGSNRNRRYHIK	-0.302

— the domain aggregation screens of Martell et al. (2025)
